According to US20240082389A1:

Molecular target: ALFA nanobody (ALFANb) fused to the N-terminus of PTGFRN, displayed on the exterior surface of exosomes (UniProt Q9P2B2)
Assay: IL-12 ELISA of loaded EVs

fold more IL-12 loaded per EV than on control EVs with IL-12 genetically fused to PTGFRN: 290 fold
Substance: mouse IL-12 fused to ALFAtag peptide (ligand)
